Measurements from patent US6403765B1, “Truncated Apaf-1 and methods of use thereof” (Thomas Jefferson University, priority 1998, dated 2002).
Numbering of substitutions follows the chain as printed. Numbers in names are those of the source.

B1: WT procaspase-9: non-fusion wild type procaspase-9 (protein)
chain: MDEADRRLLRRCRLRLVEELQVDQLWDALLSRELFRPHMIEDIQRAGSGSRRDQARQLIIDLETRGSQALPLFISCLEDTGQDMLASFLRTNRQAAKLSKPTLENLTPVVLRPEIRKPEVLRPETPRPVDIGSGGFGDVGALESLRGNADLAYILSMEPCGHCLIINNVNFCRESGLRTRTGSNIDCEKLRRRFSSLHFMVEVKGDLTAKKMVLALLELAQQDHGALDCCVVVILSHGCQASHLQFPGAVYGTDGCPVSVEKIVNIFNGTSCPSLGGKPKLFFIQACGGEQKDHGFEVASTSPEDESPGSNPEPDATPFQEGLRTFDQLDAISSLPTPSDIFVSYSTFPGFVSWRDPKSGSWYVETLDDIFEQWAHSEDLQSLLLRVANAVSVKGIYKQMPGCFNFLRKKLFFKTS
B2: Caspase-9-DN: dominant negative procaspase-9-C287A mutant (protein)
chain: B1 chain with C287A

Columns and labels:
procaspase-9 [1] = experiment: Autoprocessing of in vitro translated procaspase-9 and Fc-fusion procaspase-9 variants; format: biochemical; conditions: 35S-labeled, FIG. 9
Excerpt: (§1) ^35S-labeled caspases were obtained by in vitro translation in the presence of ^35S-methionine using a coupled transcription/translation system in rabbit reticulocyte lysate using TNT Kit (Promega) according to the manufacturer's recommendations.
Artificially-induced oligomerization of procaspase-1 or procaspase-8 by overexpression or by heterologous-inducible oligomerization systems causes their autocatalytic processing/activation (Gu et al., EMBO 14:1923-1931, 1995; Muzio et al., J. Biol. Chem. 273:2926-2930, 1998; Yang et al., Mol. Cell 1:319-325, 1998). To test if procaspase-9 can also be activated by heterologous oligomerization, WT and the C287A mutant procaspase-9 was fused to the mouse IgG-Fc portion which can form spontaneous dimers by intermolecular disulfide linkages. FIG. 9 depicts processing of non-fusion WT procaspase-9 (pcasp-9, lane 1) or C-terminal Fc-fusion WT (pcasp-9-Fc, lane 2) or C287A (active site) mutant (pcasp-9-C287A-Fc, lane 3) procaspase-9 which were in vitro translated in the presence of ^35S-methionine and then analyzed by SDS-PAGE and autoradiography.

MCF-7 cells [2] = experiment: Induction of apoptosis in MCF-7 cells transfected with procaspase-9 variants; format: cell-based; conditions: overexpression, 30 hours after transfection, FIG. 10
Excerpt: (§2) To express the caspases or truncated Apaf-1 in mammalian cells and assay their apoptotic activity, they were amplified with the T7-tag primer and reverse primers using the pET28a constructs as templates, and subcloned into the mammalian double expression vector pRSC-LacZ (MacFarlane et al., J. Biol. Chem., 272:25417-25420, 1997; Tsang et al., Bio/Technology, 22:68, 1997) or as previously described (Li et al., Cell 91:479-489, 1997; Srinivasula et al., J. Biol. Chem., 272:18452-18545, 1997). This vector allows the expression of lacZ under the Rous Sarcoma virus promoter, and the test cDNA under the CMV promoter. To assay for apoptosis, MCF-7 or 293 cells were transfected, using the method commercially available as the Lipofect Amine method (Life Technologies, Inc.), with the pRSC-LacZ constructs in the presence or absence of different apoptosis-inhibitors. 30 h after transfection cells were stained with β-galactosidase and examined for morphological signs of apoptosis. The percentage of round blue apoptotic cells (mean±SD) were determined by phase contrast microscopy and then represented as a function of total blue cells under each condition (n≧3).
In FIG. 10, mammalian expression constructs encoding Fc or the procaspase-9 variants described in FIG. 9 were transfected into MCF-7 cells together with a reporter β-gal expression construct at a ratio of 3:1. […]

procaspase-9 [3] = experiment: Cytochrome c/dATP-dependent processing of procaspase-9 in 293 cellular S100 extract; format: biochemical; conditions: 293 S100 extract, increasing amounts of purified protein, 1 hour at 30° C., dose-dependent, FIG. 18
Description: To study processing of procaspase-9 in the cytochrome c/Apaf-1-dependent pathway, WT and the Asp to Ala mutants of procaspase-9 were incubated with a cellular S100 extract in the presence or absence of cytochrome c and dATP. […] Samples were then analyzed by SDS-PAGE and autoradiography.
(§3) To confirm this, a time course analysis of procaspase-9 and procaspase-3 processing was performed in cellular S100 extracts from 293 and MCF-7 cells. […] At the indicated times the reactions were stopped and then analyzed by SDS-PAGE and autoradiography (procaspase-9 panels) or Western blot analysis using anti-caspase-3 p20 polyclonal antibody (procaspase-3 panels). Small arrows indicate a non-specific band detected by the anti-caspase-3 antibody.
(§4) In FIG. 18, 293 cellular S100 extracts supplemented with ^35S-labeled procaspase-9 (upper panel) or procaspase-3 (lower panel) were incubated with (lanes 3-7) or without (lane 2) cytochrome c plus dATP in the presence of increasing amounts of purified recombinant procaspase-9-C287A mutant for 1 hour at 30° C. and then analyzed by SDS-PAGE and autoradiography. […] Consequently, the Apaf-1/caspase-9 pathway appears to be a central apoptotic pathway, on which most apoptotic signals converge.

MCF-7 cells [4] = experiment: Inhibition of apoptosis in transfected MCF-7 cells; format: cell-based; conditions: apoptosis induced by UV, Fas agonist antibody
Excerpt: as §2

procaspase-3 = experiment: Cytochrome c/dATP-dependent processing of procaspase-3 in 293 cellular S100 extract; format: biochemical; conditions: 293 S100 extract, increasing amounts of purified protein, 1 hour at 30° C., dose-dependent, FIG. 18
Description: as §3
In FIG. 8, ^35S-labeled procaspase-3, -6 or -7 were incubated with S100 extracts from 293 cells in the presence or absence of cytochrome c/dATP or DEVD-CHO, or both and analyzed by SDS-PAGE followed by autoradiography. However, when DEVD-CHO was included, processing of procaspase-6 (lane 6), but not procaspase-3 (lane 3) or -7 (lane 9) was inhibited. […] Also, since caspase-7 cannot process procaspase-6 (Srinivasula et al., J. Biol. Chem. 271:27099-27106, 1996), caspase-3 is the one responsible for processing of procaspase-6 in the cytochrome c plus dATP-dependent pathway.
as §4

procaspase-9 [5] = molecular target: T1, procaspase-9 (Homo sapiens, UniProt P55211); experiment: In vitro caspase 9 activation assay: recombinant Apaf-1 variants incubated with in vitro translated procaspase-9; format: biochemical; conditions: in vitro reconstituted system, data not shown
T1 construct: schematic representation of full length procaspase-9; made in house; host or cells: coupled in vitro transcription/translation in rabbit reticulocyte lysate (TNT Kit, Promega)
T1 sequence (P55211 1-416): B1 chain
Description: SDS sample buffer was then added to each sample, boiled and subjected to SDS-PAGE analysis followed by autoradiography. In FIG. 2A procaspase-9 was in vitro translated in the presence of ^35S-methionine. Following translation procaspase-9 was desalted by gel filtration through a biospin column (BioRad) to remove unincorporated methionine and free nucleotides. Desalted procaspase-9 was then incubated with 200 ng Ni^2+-affinity purified bacterially expressed recombinant Apaf-530 (WT or K149R mutant) in the presence or absence of cytochrome c or dATP or both for 2 h at 30° C. A mock sample containing Ni^2+-affinity purified material from bacteria transformed with an empty vector was used as a negative control. Following incubation the products were analyzed by SDS-PAGE and autoradiography. In FIG. 2B^35S-labeled procaspase-9 (as described above) was incubated with bacterial lysates containing truncated Apaf-1 variants as indicated and then analyzed as above (2B upper panel). The bacterial lysates were analyzed by SDS-PAGE and immunoblotted with an Apaf-1 antibody which recognizes the N-terminus of Apaf-1 (lanes 2-6) and an anti T7-tag antibody (lanes 7-8) to confirm expression and equivalent concentration of the different Apaf-1 variants (2B lowerpanel). The molecular mass markers are indicated to the right of the lower panel.
as §1
To determine the role of the WD-40 repeat in the mechanism of Apaf-1-induced processing of procaspase-9, truncated Apaf-1 (Apaf-530) lacking its WD-40 repeats (FIG. 1) was expressed and purified. To reconstitute a recombinant caspase-9 activation system, the truncated Apaf-530 was incubated with in vitro translated recombinant procaspase-9 in the presence or absence of cytochrome c and dATP. […] It was previously shown that mutation of CED-4 K165R which is required for nucleotide binding destroys its activity (Chinnaiyan et al., Nature 388:728-729, 1997; Jarnes et al., Curr. Biol. 7:246-252, 1997; Seshagiri and Miller, Curr. Biol. 7:455-460, 1997). […] Therefore, either binding of Apaf-1 to cytochrome c and dATP or deletion of the repeats could induce a conformational change enabling Apaf-1 to bind and process procaspase-9.
In FIG. 3, ^35S-labeled WT or mutant D330A, D315A or C287A mutants of procaspase-9 or prodomainless procaspase-9 (Δpro, residues 134-416) were incubated with buffer (lanes 1, 4, 7, 10, 13), purified Apaf-530 (lanes 2, 5, 8, 11, 14) or mock purified material (lanes, 3, 6, 9, 12, 15) and then analyzed by SDS-PAGE and autoradiography.

[6] = tested on: apoptosis induced by the proapoptotic members of the Bcl-2 family; conditions: Hegde et al. 1998; Li et al. 1997; cited from earlier work

| Molecule | self-processing to large subunit (p35) and small subunit (procaspase-9 [1]) | induction of apoptosis (MCF-7 cells [2]) | attenuation of cytochrome c/dATP-induced activation of procaspase-9 (procaspase-9 [3]) | inhibition of apoptosis (MCF-7 cells [4]; TRAIL, or overexpression of DR4 and DR5, FIG. 17) | inhibition of apoptosis (MCF-7 cells [4]; TRAIL, or overexpression of DR4 and DR5, FIG. 17, listed as dominant negative caspase-9 mutant) | attenuation of cytochrome c/dATP-induced activation of procaspase-3 (procaspase-3) | attenuation of Apaf-530-induced activation of procaspase-9 (procaspase-9 [5]) | inhibition of apoptosis induced by the proapoptotic members of the Bcl-2 family [6] |
| --- | --- | --- | --- | --- | --- | --- | --- | --- |
| B1 | incapable of processing | induced little apoptosis | – | – | – | – | – | – |
| B2 | – | – | able to attenuate | can also inhibit apoptosis | as efficient as that observed with Bcl-xL or X-IAP | able to attenuate | A similar result | can inhibit apoptosis |
